Results: patent US20230322953A1 (HARBOUR BIOMED SHANGHAI, published 2023)

Biological target: T1, human CD3 (TCR/CD3 complex) on human T cells (human, UniProt P07766 23-207)
T1 construct: whole, on cells
Experiment: flow cytometry (FACS) on human T cells, Experiment 1
Description: The binding ability of the antibody molecules to human or cynomolgus monkey T cells was tested by flow cytometry FACS. […] The T cell density was adjusted to 1×10⁶ cells/mL. […] The cells were incubated at 4° C. for 1 h away from light. Then, the cells in each well were rinsed twice with 100 μL of pre-cooled PBS, and centrifuged at 500 g at 4° C. for 5 min, and then the supernatant was discarded. […] The cells in each well were rinsed twice with 100 μL of pre-cooled PBS, and centrifuged at 500 g at 4° C. for 5 min, and then the supernatant was discarded. Finally, the cells in each well were resuspended in 200 μL of pre-cooled PBS. Fluorescence signal values were read using a BD FACS CANTOII flow cytometer or an ACEA NovoCyte flow cytometer, and the data were processed and analyzed using FlowJo v10 (FlowJo, LLC) software. The data were processed and analyzed by plotting using GraphPad Prism 8 software, and binding curves of the antibodies to target cells, EC₅₀ values and other parameters were obtained through four-parameter nonlinear fitting.

T1 sequence (P07766 23-207, one chain of several): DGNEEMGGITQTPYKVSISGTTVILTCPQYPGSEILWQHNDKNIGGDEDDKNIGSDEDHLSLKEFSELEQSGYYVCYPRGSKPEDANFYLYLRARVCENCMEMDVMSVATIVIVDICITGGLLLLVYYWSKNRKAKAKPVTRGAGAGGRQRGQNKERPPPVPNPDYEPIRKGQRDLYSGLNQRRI

Maximum MFI	Binder
6680 MFI	PR001989 (bispecific antibody, human IgG1, lambda, L234A L235A, Structure 11 (Fab-Fc-VH): CD3 Fab from PR000511, BCMA VH from PR001035; human IgG1 knob/hole, AAG) light: QAVVTQEPSLTVSPGGTVTLTCRSSTGAVTTSNYANWVQQKPGQAPRGLIGGTNKRAPWTPARFSGSLLGDKAALTLLGAQPEDEAEYFCALWYSNLWVFGGGTKLTVLGQPKAAPSVTLFPPSSEELQANKATLVCLISDFYPGAVTVAWKADSSPVKAGVETTTPSKQSNNKYAASSYLSLTPEQWKSHRSYSCQVTHEGSTVEKTVAPTECS heavy: EVQLLESGGGLVQPGGSLRLSCAASGFTFNTYAMNWVRQAPGKGLEWVSRIRSKYNNYATYYADSVKDRFTISRDDSKSTLYLQMNSLRAEDTAVYYCVRHGNFGNSYVSWFAYWGQGTLVTVSSASTKGPSVFPLAPSSKSTSGGTAALGCLVKDYFPEPVTVSWNSGALTSGVHTFPAVLQSSGLYSLSSVVTVPSSSLGTQTYICNVNHKPSNTKVDKKVEPKSCDKTHTCPPCPAPEAAGGPSVFLFPPKPKDTLMISRTPEVTCVVVDVSHEDPEVKFNWYVDGVEVHNAKTKPREEQYNSTYRVVSVLTVLHQDWLNGKEYKCKVSNKALGAPIEKTISKAKGQPREPQVYTLPPCREEMTKNQVSLWCLVKGFYPSDIAVEWESNGQPENNYKTTPPVLDSDGSFFLYSKLTVDKSRWQQGNVFSCSVMHEALHNHYTQKSLSLSPGK EVQLVETGGGLIQPGGSLRLSCAASGFTVSSNYMTWVRQAPGKGLEWVSVIFSGGSTYYADSVKGRFTISRDNSKNTLYLQMNSLRAEDTAVYYCARRIAVAGHDVFDIWGQGTMVTVSSASEPKSSDKTHTCPPCPAPEAAGGPSVFLFPPKPKDTLMISRTPEVTCVVVDVSHEDPEVKFNWYVDGVEVHNAKTKPREEQYNSTYRVVSVLTVLHQDWLNGKEYKCKVSNKALGAPIEKTISKAKGQPREPQVCTLPPSREEMTKNQVSLSCAVKGFYPSDIAVEWESNGQPENNYKTTPPVLDSDGSFFLVSKLTVDKSRWQQGNVFSCSVMHEALHNHYTQKSLSLSPGK
3240 MFI	PR001991 (bispecific antibody, human IgG1, kappa, L234A L235A, CD3 Fab from PR000511, BCMA VH from PR000940; IgG1 knob/hole, AAG) chain 1: EVQLLESGGGLVQPGGSLRLSCAASGFTFNTYAMNWVRQAPGKGLEWVSRIRSKYNNYATYYADSVKDRFTISRDDSKSTLYLQMNSLRAEDTAVYYCVRHGNFGNSYVSWFAYWGQGTLVTVSSRTVAAPSVFIFPPSDEQLKSGTASVVCLLNNFYPREAKVQWKVDNALQSGNSQESVTEQDSKDSTYSLSSTLTLSKADYEKHKVYACEVTHQGLSSPVTKSFNRGEC chain 2: QAVVTQEPSLTVSPGGTVTLTCRSSTGAVTTSNYANWVQQKPGQAPRGLIGGTNKRAPWTPARFSGSLLGDKAALTLLGAQPEDEAEYFCALWYSNLWVFGGGTKLTVLSSASTKGPSVFPLAPSSKSTSGGTAALGCLVKDYFPEPVTVSWNSGALTSGVHTFPAVLQSSGLYSLSSVVTVPSSSLGTQTYICNVNHKPSNTKVDKKVEPKSCDKTHTCPPCPAPEAAGGPSVFLFPPKPKDTLMISRTPEVTCVVVDVSHEDPEVKFNWYVDGVEVHNAKTKPREEQYNSTYRVVSVLTVLHQDWLNGKEYKCKVSNKALGAPIEKTISKAKGQPREPQVYTLPPCREEMTKNQVSLWCLVKGFYPSDIAVEWESNGQPENNYKTTPPVLDSDGSFFLYSKLTVDKSRWQQGNVFSCSVMHEALHNHYTQKSLSLSPGK chain 3: EVQLLESGGGLVQPGGSLRLSCAASGFTFSSYAMIWVRQAPGKGLEWVSGISESGGSTYYADSVKGRFTISRDNSKNTLYLQMNSLRAEDTAVYFCVKDLDDILTGYYKDYWGQGTLVTVSSASEPKSSDKTHTCPPCPAPEAAGGPSVFLFPPKPKDTLMISRTPEVTCVVVDVSHEDPEVKFNWYVDGVEVHNAKTKPREEQYNSTYRVVSVLTVLHQDWLNGKEYKCKVSNKALGAPIEKTISKAKGQPREPQVCTLPPSREEMTKNQVSLSCAVKGFYPSDIAVEWESNGQPENNYKTTPPVLDSDGSFFLVSKLTVDKSRWQQGNVFSCSVMHEALHNHYTQKSLSLSPGK
